# Measurements reported in patent US20110008323A1.
# T1: human Cadherin-11 expressed on 431-D-11 cells (human) (UniProt P55287)
# T1 sequence: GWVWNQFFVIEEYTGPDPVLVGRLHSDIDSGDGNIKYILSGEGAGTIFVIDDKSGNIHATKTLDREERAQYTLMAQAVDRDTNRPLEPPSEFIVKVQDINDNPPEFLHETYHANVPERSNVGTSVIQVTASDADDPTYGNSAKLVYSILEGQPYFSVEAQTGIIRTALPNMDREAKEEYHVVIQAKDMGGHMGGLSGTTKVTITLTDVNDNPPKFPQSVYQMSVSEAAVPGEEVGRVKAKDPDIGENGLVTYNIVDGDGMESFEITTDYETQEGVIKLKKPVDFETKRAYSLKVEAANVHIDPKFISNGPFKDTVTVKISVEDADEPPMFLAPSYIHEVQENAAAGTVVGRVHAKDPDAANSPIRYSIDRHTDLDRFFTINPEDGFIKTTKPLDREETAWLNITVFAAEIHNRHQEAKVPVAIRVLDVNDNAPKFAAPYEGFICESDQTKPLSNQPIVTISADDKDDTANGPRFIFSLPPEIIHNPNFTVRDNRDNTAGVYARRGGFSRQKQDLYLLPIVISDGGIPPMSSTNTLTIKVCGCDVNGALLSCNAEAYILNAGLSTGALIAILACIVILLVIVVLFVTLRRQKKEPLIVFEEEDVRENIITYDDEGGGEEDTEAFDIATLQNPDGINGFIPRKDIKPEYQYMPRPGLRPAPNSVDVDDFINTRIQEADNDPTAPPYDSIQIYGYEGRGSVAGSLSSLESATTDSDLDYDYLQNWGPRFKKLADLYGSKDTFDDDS
# T2: Cad-8 EC1 domain peptide (region overlapping the G1-G33 region of the Cad-11 EC1 domain) (UniProt P55286)
# T2 sequence (peptide, conjugated to biotin, looked up): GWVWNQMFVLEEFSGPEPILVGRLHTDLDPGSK
# T3: Cad-11 EC1 domain peptide (first 33 amino acids of the EC1 domain), specificity ELISA of Example 5 (human)
# T3 sequence (peptide): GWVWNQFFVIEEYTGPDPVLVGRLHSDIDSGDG
# How the values were obtained:
# [1] = target: T1, human Cadherin-11 expressed on 431-D-11 cells (human); test: cell-based or functional assay
# [2] = target: T2, Cad-8 EC1 domain peptide (region overlapping the G1-G33 region of the Cad-11 EC1 domain); test: ELISA on EC1 domain peptides, against the Cad-11 peptide
# [3] = target: T3, Cad-11 EC1 domain peptide (first 33 amino acids of the EC1 domain), specificity ELISA of Example 5 (human); test: ELISA on EC1 domain peptides (first 33 amino acids)
# [4] = target: T1, human Cadherin-11 expressed on 431-D-11 cells (human); test: cell-based or functional assay; remark: listed apart in the source
inhibition of Cad-11 mediated cell aggregation [1],inhibition of aggregation of Cad-11 expressing 431-D-11 cells at 40 min [1],fold lower binding than to Cad-11 [2],fold higher binding to Cad-11 than to any of the other cadherins tested [3],"inhibition of aggregation of Cad-11-expressing A-431-D cells (photographs, overnight culture) [4]",Molecule
100 µg/mL,–,–,–,–,human Cad-11-EC1-5-Fc fusion protein (from UniProt P55287 54-609)
3 µg/mL,3 µg/mL,–,–,–,human Cad-11-EC1-hIgG2-Fc1 fusion protein (Fc fusion)
–,–,365 fold,> 100 fold,30 µg/mL,"H1M1 anti-Cad-11 antibody (produced by hybridoma H1M1, ATCC accession number PTA-9699) (antibody, from a related filing, V domains shown) VH: EVQLQQSGPELVKPGASVKISCKASGYSFTGYFMNWVKQSHGKSLEWIGRINPYTGDTFYNQKFKGKATLTVDKSSSTAHMELLSLSSEDSAVYYCGRLGSRYWYFDVWGAGTTVTVSS VL: DVLMTQTPLSLPVSLGDQASISCRSSQSIIHSNGNTYLEWYLQKPGQSPKLLIYKVSNRFSGVPDRFTGSGSGTDFTLKISRVEAEDLGVYYCFQGSHVPWTFGGGTKLEIK"
